Measurements taken from patent publication US5576294A, “Human Kunitz-type protease inhibitor variant” (Novo Nordisk A/S, priority 1992, dated 1996).
pKi: −log10 of the molar value.

Columns and labels:
[1] = molecular target: Human neutrophil elastase (human) (UniProt P08246)
[2] = molecular target: bovine chymotrypsin (TLCK treated) (bovine) (UniProt P00766)
[3] = molecular target: bovine chymotrypsin (TLCK treated) (bovine) (UniProt P00766); assay: apparent Ki; 2.5 nM chymotrypsin, substrate S2586, 30 min preincubation, residual activity at 405 nm
[4] = molecular target: Human neutrophil elastase (human) (UniProt P08246); assay: apparent Ki; 4 nM neutrophil elastase, substrate M4765, 30 min preincubation, residual activity at 405 nm
Porcine trypsin = molecular target: T1, Porcine trypsin (Sus scrofa, UniProt P00761); assay: Inhibition of serine proteinases: trypsin, peptidyl nitroanilide substrate, residual activity at 405 nm; type: biochemical; conditions: Example 9; enzyme 10 nM, substrate S2251, 30 min incubation; read-out: Apparent Ki (nM), Trypsin
T1 construct: purchased Novo Nordisk (Bagsvaerd, Denmark; the applicant itself)
T1 sequence (P00761 9-231): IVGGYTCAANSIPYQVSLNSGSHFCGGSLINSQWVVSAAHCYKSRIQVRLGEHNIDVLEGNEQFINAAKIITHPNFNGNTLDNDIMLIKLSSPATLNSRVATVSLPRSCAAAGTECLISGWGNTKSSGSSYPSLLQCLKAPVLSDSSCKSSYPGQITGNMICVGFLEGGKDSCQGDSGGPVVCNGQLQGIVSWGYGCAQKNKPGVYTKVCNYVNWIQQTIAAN
Procedure: (§1) KFN 1593 was purified from yeast culture medium as described in example 1. The concentration of KFN 1593 was determined using 1% E280 nm =8.3 and Mw =6500. Porcine trypsin was from Novo Nordisk (Bagsv.ae butted.rd, Denmark), bovine chymotrypsin (TLCK treated) and porcine pancreatic kallikrein was from Sigma Chemical Co (St. Louis, Mo., U.S.A.), human plasmin and human plasma kallikrein was from Kabi (Stockholm, Sweden).
(§2) Human neutrophil elastase and cathepsin G was purified from extracts of PMNs according to the method described by Baugh and Travis (Biochemistry 15 (1976) 836-843). Peptidyl nitroanilide substrates, S2251, S2586, S2266, S2302 were from Kabi (Stockholm, Sweden). M4765 and S7388 was from Sigma Chemical Co (St. Louis, Mo., U.S.A.) and FXa-1 was from NycoMed (Oslo, Norway).
(§3) Serine proteinases were incubated with various concentrations of KFN 1593 for 30 min. Substrate was then added and residual proteinase activity was measured at 405 nm.
(§4) The three TFPI (domain II) variants were purified from yeast culture medium. Their concentrations were determined from the absorbance at 214 nm using BPTI as a standard. The final concentration was determined by titration with trypsin. Porcine trypsin and human recombinant proteins, factor VIIa, activated protein C (ACP), and tPA were obtained from Novo Nordisk A/S (Bagsvaerd, Denmark), so was human thrombin. Bovine chymotrypsin and glandular kallikrein were obtained from Sigma Chemical Co. (St. Louis, Mo., U.S.A.). Truncated human recombinant tissue factor was obtained from Corvas (San Diego, Calif., U.S.A.). Human neutrophil cathepsin G was purified from extracts of PMNs according to the method described by Baugh and Travis (Biochemistry 15 (1976) 836-843). Human plasmin was from Kabi (Stockholm, Sweden), uPA was from Serono (Milan, Italy), human factor Xa was a gift from Dr. W. Kisiel (Albuquerque, N.M., U.S.A.), and human plasma kallikrein was a gift from Dr. I Schousboe (Copenhagen, Denmark).
(§5) Peptidyl nitroanilide substrates, S2251, S2302, S2266, S2586, S2288, S2444, S2366, and S2238 were from Kabi (Stockholm, Sweden). S7388 and M4765 were from Sigma Chemical Co. (St. Louis, Mo., U.S.A.) and FXa-1 was from Nycomed (Oslo, Norway).
(§6) Serine proteinases were incubated with various concentrations of Kunitz Domain variant for 30 min. Substrate (0.6 mM) was then added and residual proteinase activity was measured at 405 nm.
(§7) The four variants were purified from yeast culture medium. Their concentrations were determined from the absorbance at 214 nm using BTPI as a standard. Porcine trypsin was obtained from Novo Nordisk A/S (Bagsvaerd, Denmark, bovine chymotrypsin (TLCK treated) was obtained from Sigma Chemical Co. (St. Louis, Mo., U.S.A.). Truncated human recombinant tissue factor was obtained from Corvas (San Diego, Calif., U.S.A.). Human plasmin was from Kabi (Stockholm, Sweden). Human neutrophil cathepsin G and elastase were purified from extracts of PMNs according to the method described by Baugh and Travis (Biochemistry 15 (1976) 836-843).
(§8) Peptidyl nitroanilide substrates, S2251, S2586 were from Kabi (Stockholm, Sweden). S7388 and M4765 were from Sigma Chemical Co. (St. Louis, Mo., U.S.A.).
(§9) Serine proteinases were incubated with various concentrations of the variants for 30 min. Substrate ([…]) was then added and residual proteinase activity was measured at 405 nm.

[5] = molecular target: T2, Human neutrophil elastase (Homo sapiens, UniProt P08246); assay: Inhibition of serine proteinases: neutrophil elastase; type: biochemical; conditions: Example 9; for Ki: enzyme 4 nM, substrate M4765, 30 min incubation, read-out: Apparent Ki (nM), N. elastase
T2 construct: Human neutrophil elastase and cathepsin G was purified from extracts of PMNs; from tissue; host or cells: extracts of human polymorphonuclear leukocytes (PMNs), method of Baugh and Travis
T2 sequence (P08246 30-267): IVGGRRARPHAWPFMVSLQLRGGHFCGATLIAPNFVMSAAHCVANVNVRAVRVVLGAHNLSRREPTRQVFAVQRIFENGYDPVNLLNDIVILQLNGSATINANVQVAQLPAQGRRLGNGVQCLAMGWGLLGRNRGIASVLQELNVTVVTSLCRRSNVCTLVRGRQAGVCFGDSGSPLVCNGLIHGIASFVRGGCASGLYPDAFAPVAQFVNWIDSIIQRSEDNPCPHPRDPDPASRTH
Procedure: as §1, §2
Serine proteinases were incubated with various concentrations of KFN 1593 for 30 min. Substrate was then added and residual proteinase activity was measured at 405 nm. […]
as §7, §8, §9

[6] = molecular target: T3, Human neutrophil cathepsin G (Homo sapiens, UniProt P08311); assay: Inhibition of serine proteinases: neutrophil cathepsin G; type: biochemical; conditions: Example 9; enzyme 50 nM, substrate S7388, 30 min incubation; read-out: Apparent Ki (nM), N. cathepsin G
T3 construct: Human neutrophil cathepsin G was purified from extracts of PMNs; from tissue; host or cells: extracts of human polymorphonuclear leukocytes (PMNs), method of Baugh and Travis
T3 sequence (P08311 21-255): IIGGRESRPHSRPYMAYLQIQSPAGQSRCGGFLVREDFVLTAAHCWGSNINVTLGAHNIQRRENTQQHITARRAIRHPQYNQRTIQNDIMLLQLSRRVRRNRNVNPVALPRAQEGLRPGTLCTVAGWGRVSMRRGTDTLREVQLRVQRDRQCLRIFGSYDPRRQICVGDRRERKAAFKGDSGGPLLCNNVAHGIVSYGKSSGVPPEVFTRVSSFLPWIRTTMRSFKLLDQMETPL
Procedure: as §1, §2, §3, §4, §5, §6, §7, §8, §9

Bovine chymotrypsin = molecular target: T4, Bovine chymotrypsin (Bos taurus, UniProt P00766); assay: Inhibition of serine proteinases: chymotrypsin; type: biochemical; conditions: Example 9; enzyme 2.5 nM, substrate S2586 0.6 mM, 30 min incubation; read-out: Apparent Ki (nM), Chymotrypsin
T4 construct: purchased Sigma Chemical Co. (St. Louis, Mo., U.S.A.)
Procedure: as §4, §5, §6, §7, §8, §9

Human plasmin = Human plasmin (Homo sapiens, UniProt P00747); assay: Inhibition of serine proteinases: plasmin; type: biochemical; parameters: human plasmin and human plasma kallikrein was from Kabi (Stockholm, Sweden); purchased Kabi (Stockholm, Sweden); conditions: Example 9; enzyme 4 nM, 30 min incubation; read-out: Apparent Ki (nM), Plasmin
Human plasmin, sequence (P00747 581-810 limits assumed): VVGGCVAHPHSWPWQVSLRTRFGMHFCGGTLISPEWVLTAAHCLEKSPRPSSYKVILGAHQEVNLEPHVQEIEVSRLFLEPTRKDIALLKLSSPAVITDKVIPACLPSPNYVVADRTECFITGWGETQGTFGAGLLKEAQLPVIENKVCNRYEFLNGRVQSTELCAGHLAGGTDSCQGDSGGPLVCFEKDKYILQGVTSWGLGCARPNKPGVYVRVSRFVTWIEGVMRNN
Human plasmin, sequence (P00747 97-580 limits assumed): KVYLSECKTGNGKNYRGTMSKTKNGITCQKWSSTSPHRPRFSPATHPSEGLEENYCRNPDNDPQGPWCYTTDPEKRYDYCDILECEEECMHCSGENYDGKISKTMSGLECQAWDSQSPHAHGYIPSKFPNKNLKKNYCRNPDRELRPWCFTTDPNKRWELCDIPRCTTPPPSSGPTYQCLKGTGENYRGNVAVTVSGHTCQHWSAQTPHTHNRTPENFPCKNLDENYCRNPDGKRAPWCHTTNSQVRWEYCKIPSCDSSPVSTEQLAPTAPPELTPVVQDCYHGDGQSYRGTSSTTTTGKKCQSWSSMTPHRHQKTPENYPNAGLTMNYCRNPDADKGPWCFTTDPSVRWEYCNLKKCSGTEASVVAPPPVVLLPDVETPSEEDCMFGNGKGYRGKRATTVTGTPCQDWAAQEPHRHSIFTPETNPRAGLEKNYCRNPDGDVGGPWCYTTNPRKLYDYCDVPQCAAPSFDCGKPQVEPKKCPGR
Procedure: as §1, §2, §3, §4, §5, §6, §7, §8, §9

granulocyte elastase = molecular target: T5, granulocyte elastase (Homo sapiens, UniProt P08246); conditions: Wenzel and Tschesche 1981; cited from earlier work
T5 sequence (P08246 30-267): T2 sequence (P08246 30-267)

Substance | apparent Ki [1] | pKi [4] | Ki (Porcine trypsin) | neutrophil elastase inhibition (in words) [5] | Ki [5] | Ki [6] | Ki (Bovine chymotrypsin) | Ki (Human plasmin) | further results
[R15L]-TFPI-2 from yeast strain KFN-1928 (from UniProt P10646) |  | 8.66 |  |  |  |  |  |  | residual proteinase activity at 405 nm (apparent Ki) [1]: 2.2 nM; apparent Ki [2]: < 5 nM; pKi [3]: > 8.30
[R15V, G16A]-TFPI-2 [KFN 1897] |  |  | > 1000 nM | strong inhibitors | 0.46 nM | > 1000 nM | > 100 nM | > 1000 nM | 
aprotinin (1-58, Ala15) |  |  |  |  |  |  |  |  | effect on granulocyte elastase (in words) (granulocyte elastase): weak effect

Second part, led by results:

apparent Ki [1] | pKi [4] | Ki (Porcine trypsin) | neutrophil elastase inhibition (in words) [5] | Ki [5] | Ki [6] | Ki (Bovine chymotrypsin) | Ki (Human plasmin) | Substance | further results
0.23 nM | 9.64 |  |  |  |  |  |  | [R15L, G16A]-TFPI-2 from yeast strain KFN-1893 (from UniProt P10646) | apparent Ki [2]: < 5 nM; pKi [3]: > 8.30
 |  | > 1000 nM | strong inhibitors | 2.2 nM | > 1000 nM | < 5 nM | > 1000 nM | [R15L]-TFPI-2 [KFN 1928] | 
0.46 nM | 9.34 |  |  |  |  |  |  | [R15V, G16A]-TFPI-2 from yeast strain KFN-1897 (from UniProt P10646) | 
 |  | > 1000 nM | strong inhibitors | 0.35 nM | > 1000 nM | > 100 nM | > 1000 nM | [R15V]-TFPI-2 [KFN 1898] | 
0.35 nM | 9.46 |  |  |  |  |  |  | [R15V]-TFPI-2 from yeast strain KFN-1898 (from UniProt P10646) | 
